Laboratory results from the nanobody polyreactivity screen of Harvey et al. (2022).

Test: yeast display, Sf9 membrane polyspecificity reagent, FACS + sequencing; frameworks hold sequencing errors
Outline: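 A nanobody's polyreactivity label depends on the gate it was sorted from. Yeast display cells were stained with 10% biotinylated, detergent-solubilized Sf9 membrane reagent for 1 hour at 4 °C, enriched on streptavidin microbeads and sorted by FACS. The low and high (top ~1%) gates were set on anti-HA fluorescence for expression and streptavidin fluorescence for reagent binding.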
With “QVQLVESGGGLVQAGGSLRLSCAASGSIFSYYAMGWYRQAPGKERELVATISVSGGNTYYADSVKGRFTISRDYAKNTVYLQMNSLKPEDTAVYYCAKYNWYRAWRYGYWGQGTQVTVSS” the “polyreactivity (PSR sort gate)” value was “high polyreactivity”.
In the case of “QVQLVESGGGLVQAGGSLRLSCAASGSIFSYYARGWYRHAPGKERELVADITWDGGSTYYADSVKGRFTISRDNAKNTVYLQMNSLKPEDTAVYYCAAGRIVWSDYYVYTLYDYWGQGTQVTVSS”, the “polyreactivity (PSR sort gate)” value is reported as “high polyreactivity”.
With “QVQLVESGGGLVQAGGSLRLSCAASGSIFSYYVMGWYRQAPGKERELVAAITSSGGSTYYADSVKGRFTISRDNAKNTVYLQMNSLKTEDTAVYYCAAYQRSQDRSYPGYEYWGQGTQVTVSS” the “polyreactivity (PSR sort gate)” value was “high polyreactivity”.
With “QVQLVESGGGLVQAGGSLRLSCAASGSIFSYYVMGWYRQAPGKERELVAVITDRGGRTYYADSVKGRFTISRDNAKNTVYLQMNSLKPEDTAVYYCAADDTPYNSKRFDYWGQGTQVTVSS” the “polyreactivity (PSR sort gate)” value was “high polyreactivity”.
With “QVQLVESGGGLVQAGGSLRLSCAASGSIFTAYAMGWYRQAPGKERELVAAIRWNDGRTYYADSVKGRFTISRDNAKNTVYLQINSLKPEDTAVYYCAARYTDVTPGFAYYYWGQGTQVTVSS” the “polyreactivity (PSR sort gate)” value was “high polyreactivity”.
In the case of “QVQLVESGGGLVQAGGSLRLSCAASGSIFTAYDKGWYRQAPGKVRDLVAAINVSAGTTYYADSVKGRFTISRDNAKNTVYLQMNSLKPEDTAVYYCATDRSPTPYTRENIYDYWGQGTQVTVSS”, the “polyreactivity (PSR sort gate)” value is reported as “low polyreactivity”.
In the case of “QVQLVESGGGLVQAGGSLRLSCAASGSIFTAYTMGWYRQAPGKERELVAAITERGGSTYYADSVKGRFTISRDNAKKTVYLQMNSMKPEDTAVYYCAASTLKDIYLWFRVDYWGQGTQVTVSS”, the “polyreactivity (PSR sort gate)” value is reported as “low polyreactivity”.
With “QVQLVESGGGLVQAGGSLRLSCAASGSIFTDNAMGWYRQAPGKERELVAAITSNGGSTYYADSVKGRFTISRDNAKNTVYLQMNSLKPEDTAVYYCAADSLYREDDYWGHGTQVTVSS” the “polyreactivity (PSR sort gate)” value was “low polyreactivity”.
For “QVQLVESGGGLVQAGGSLRLSCAASGSIFTDYALAWYRQAPGKERELVATITWSDATTYYTDSVKGRFTISRDNAKNTVYLQMNSLKPEDTAVYYCARRSRYSKGYDYWGQGTQVTVSS”, the “polyreactivity (PSR sort gate)” value was “low polyreactivity”.
For “QVQLVESGGGLVQAGGSLRLSCAASGSIFTENEMGWYRQAPGKERELVATITITGSTNYADSVKGRFTISRDNAKNTVYLQMNSLKPEDTAVYYCAAEQPYKSPWTFGGYDYWGQGTQVTVSS”, the “polyreactivity (PSR sort gate)” value was “low polyreactivity”.
With “QVQLVESGGGLVQAGGSLRLSCAASGSIFTFNSMGWYRQSPGKERELVAAIRWSSGRTYYADSVKGRFTISRDNAKNTVYLQMNSLKPEETAVYYCAAKDFGSFYDSGYDYWGQGTQVTVSS” the “polyreactivity (PSR sort gate)” value was “high polyreactivity”.
In the case of “QVQLVESGGGLVQAGGSLRLSCAASGSIFTFYAMGWYRQAPGKERELVAAISSSGTSTYYADSVQGRFTISRDNAKNTVYLQMNSLKPEDTAVYYCNVPMPPAKAEYGYWGQGTQVTVSS”, the “polyreactivity (PSR sort gate)” value is reported as “high polyreactivity”.
With “QVQLVESGGGLVQAGGSLRLSCAASGSIFTFYDMGWYRQAPGKERELVAAISSGGSTTYADSVKGRFTISRDNAKNTVYLQMNSLKPEDTAVYYCAADSQPYLYPVEYDYWGQGTQVTVSS” the “polyreactivity (PSR sort gate)” value was “low polyreactivity”.
In the case of “QVQLVESGGGLVQAGGSLRLSCAASGSIFTGNAMGWYRPAPGTERELVAAITRSGDSTYYADSVKGRFTISRDNAKNTVYLQMNSLKPEDTAVDYCNARWRYLHSYGYWGQGTQVTVSS”, the “polyreactivity (PSR sort gate)” value is reported as “low polyreactivity”.
For “QVQLVESGGGLVQAGGSLRLSCAASGSIFTGNAMGWYRQAPGKERELVAGISKSGGSTYYADSVKGRFTISRDNAKNTVYLQMNSLKPEDTAVYYCAAREGWWPYYYWGQGTQVTVSS”, the “polyreactivity (PSR sort gate)” value was “high polyreactivity”.
With “QVQLVESGGGLVQAGGSLRLSCAASGSIFTGYAMGWYRPAPGKERELVAAITSGGGTYYADSVKGRFTISRDNAKNTVSLQMNSLKPEDTAVYYCATTPGWYKVSRRYGYWGQGTQVTVSS” the “polyreactivity (PSR sort gate)” value was “high polyreactivity”.
For “QVQLVESGGGLVQAGGSLRLSCAASGSIFTGYAMGWYRQAPGKERELVAAITYGSGRTYYADSVKGRFTISRDNAKNTVYLQMNSLKPEDTAVYYCAAKWSPYYYYIGYDYWGQGTQVTVSS”, the “polyreactivity (PSR sort gate)” value was “low polyreactivity”.
For “QVQLVESGGGLVQAGGSLRLSCAASGSIFTHNAMGWYRPAPGKERELVAAISSGGSTYYADSVKGRFTISRDNAKNTVYLQMNSLKPEDTAVYYCAVRQGWYHFRYDYWGQGTQVTVSS”, the “polyreactivity (PSR sort gate)” value was “high polyreactivity”.
With “QVQLVESGGGLVQAGGSLRLSCAASGSIFTHYAMGWYRQAPGKERELVAAISRRGGSTYYADSVKGRFTISRDNAKNTVYLQMNSLKPEDTAVYYCANSPDTAKEYDYWGQGTQVTVSS” the “polyreactivity (PSR sort gate)” value was “high polyreactivity”.
In the case of “QVQLVESGGGLVQAGGSLRLSCAASGSIFTLYAMGWYRQAPGKERELVADITFSGGTTYYADSVKGRFTISRDNAKNTVYLQMNSLKPEDTAVYYCATTYYQLYVQGYEYWGQGTQVTVSS”, the “polyreactivity (PSR sort gate)” value is reported as “high polyreactivity”.
In the case of “QVQLVESGGGLVQAGGSLRLSCAASGSIFTNNAMGWYRQAPGKERELVAGISIRGSSTYADSVKGRFTISRDNAKNTVYLQMNSLKPEDTAVYDCAADAYLELDPEVDYWGQGTQVTVSS”, the “polyreactivity (PSR sort gate)” value is reported as “low polyreactivity”.
For “QVQLVESGGGLVQAGGSLRLSCAASGSIFTPNAMGWYRQAPGKERELVAAISSSSDRTYYADSVKGRFTISRDNAKNTVYLQLNSLKPEDTAVYYCAAYAQKRYYWGQGTQVTVSS”, the “polyreactivity (PSR sort gate)” value was “high polyreactivity”.
In the case of “QVQLVESGGGLVQAGGSLRLSCAASGSIFTPNAMGWYRQAPGKERELVAAISSSSDRTYYADSVKGRFTISRDNAKNTVYLQMNSLKPEETAVYYCAAYAQKRYYWGQGTQVTVSS”, the “polyreactivity (PSR sort gate)” value is reported as “high polyreactivity”.
With “QVQLVESGGGLVQAGGSLRLSCAASGSIFTPYAMGWYRQAPGKERELVAAISRSGGSTFYADSVKGRFTISRDNAKNSFYLQMNSLKPEDTAVYYFAVVASRSHTETPEYDYWGQGTQVTVSS” the “polyreactivity (PSR sort gate)” value was “low polyreactivity”.
With “QVQLVESGGGLVQAGGSLRLSCAASGSIFTPYAMGWYRQAPGKERELVAAITYSGGSTYYADSVKGRFTISRDNAKNTVYLQMNSLKPEDTAVYYCAAYFNIYGLEYDYWGQGTQVTVSS” the “polyreactivity (PSR sort gate)” value was “high polyreactivity”.
With “QVQLVESGGGLVQAGGSLRLSCAASGSIFTPYAMGWYRQAPGKERELVADIDASGGGTYADSVKGRFTISRDNAKNTVYLQMNSLKPEDTAVYYCNTDPYSSAWYNYDYWGQGTQVTVSS” the “polyreactivity (PSR sort gate)” value was “low polyreactivity”.
For “QVQLVESGGGLVQAGGSLRLSCAASGSIFTPYVKGWYRQAPGKERELVAAISKRGTRTYYSDSVKGRFTISRDNAKNTVYLQMNSLKPEDTAVYYCNAAVDYGSEHDYWGQGTQVTVSS”, the “polyreactivity (PSR sort gate)” value was “high polyreactivity”.
With “QVQLVESGGGLVQAGGSLRLSCAASGSIFTRNAMGWYRQAPGKERELVADISRRGVSTYYADSVKGRFTISRDNAKNTVYLQMNSLKPEDTAVYYCNKLSSYVVARRTTEYDYWGQGTQVTVSS” the “polyreactivity (PSR sort gate)” value was “high polyreactivity”.
For “QVQLVESGGGLVQAGGSLRLSCAASGSIFTRNAMGWYRQAPGKERELVATIRKNGASTTYADSVKGRFTISRDNAKNTVYLQMNSLKPEDTAVSYCARDHHTKYNYWGQGTQVTVSS”, the “polyreactivity (PSR sort gate)” value was “low polyreactivity”.
In the case of “QVQLVESGGGLVQAGGSLRLSCAASGSIFTRNTMGWYRQAPGKERELVAAINRSGGRTYYADSVKGRFTISRDNAKNSVYLTMNSLKPEDTAVYYCAAYTQGSRYDYWGQGTQVTVSS”, the “polyreactivity (PSR sort gate)” value is reported as “high polyreactivity”.
In the case of “QVQLVESGGGLVQAGGSLRLSCAASGSIFTRYAMAGYRQAPGKERELVAAISWIGTRTYYADSVKGRFTISRDNAKNTVYLPMNSLKPEETAVYYCNAVSKVERYSYPHGRPFEYWGQGTQVTVSS”, the “polyreactivity (PSR sort gate)” value is reported as “high polyreactivity”.
For “QVQLVESGGGLVQAGGSLRLSCAASGSIFTRYAMGWYRQAPGKEREFVAAISRRGGRTYYADSVKGRFTISRDNAKNTVYLQMNSLKPEDTAVYYCAASEPPGYYIALFDYWGQGTQVTVSS”, the “polyreactivity (PSR sort gate)” value was “high polyreactivity”.
In the case of “QVQLVESGGGLVQAGGSLRLSCAASGSIFTRYTMGWYSQAPGKERELVAVISDSSGRTYYADSVKGRFTISRDNAKNTVYLQMNSLKPEDTAVYYCAAEYSDIYEYWGQGTQVTVSS”, the “polyreactivity (PSR sort gate)” value is reported as “low polyreactivity”.
For “QVQLVESGGGLVQAGGSLRLSCAASGSIFTRYVMGWYRQAPGKERELVAAISGRGSSTYYADSVKGRFTISRDNAKNTVYLQMNSLKPEDTAVYYCAADRVRRPSPGGMDYWGQGTQVTVSS”, the “polyreactivity (PSR sort gate)” value was “high polyreactivity”.
In the case of “QVQLVESGGGLVQAGGSLRLSCAASGSIFTSNAMGWYRQAPGKERELVAAISRRGSNTFYADSVKGRFTISRDNAKNTVYLQMNSLKPEDTAVYYCNTLVNAISYEYYYWGQGTQVNVSS”, the “polyreactivity (PSR sort gate)” value is reported as “high polyreactivity”.
For “QVQLVESGGGLVQAGGSLRLSCAASGSIFTSNAMGWYRQAPGKERELVAAISYISGGTYYADSVKGRFTISRDNAKNTVYLQMNSLKPEDTAVYYCAAEQKWGSGQYDQGSYWYYYWGQGTQVTVSS”, the “polyreactivity (PSR sort gate)” value was “low polyreactivity”.
With “QVQLVESGGGLVQAGGSLRLSCAASGSIFTSNAMGWYRQAPGKERELVAAITSSSSTNYADSVKGRFTISRDNAKNTVYLQMNSLKPEDTAVYYCAKQGNNIPWYRPYGDYYYWGQGTLVTVSS” the “polyreactivity (PSR sort gate)” value was “low polyreactivity”.
For “QVQLVESGGGLVQAGGSLRLSCAASGSIFTSNDMGWYRQAPGKERELVAAITNSGGSTYYADSVKGRFTISGDNAKNTVYLQMNSLKPEDTEVYYCAAEISILPFVTPDTIYGYWGQGTQVTVSS”, the “polyreactivity (PSR sort gate)” value was “low polyreactivity”.
For “QVQLVESGGGLVQAGGSLRLSCAASGSIFTSYAMGWYIPAPGKERELVASISGSGGSTYYADSVKGRFTISRDYSMNTVYLQMNRLKPEVTEVYVCANRCYNGWLRRYYYWGQGTNVTVSS”, the “polyreactivity (PSR sort gate)” value was “high polyreactivity”.
For “QVQLVESGGGLVQAGGSLRLSCAASGSIFTSYAMGWYRQAPGKERELVAAISRRGSRTYYADSVKGRFTISRDNANNTVYLQMNSLKPEETAVYDCAAKSGGQPGDSWGQGTQVTVSS”, the “polyreactivity (PSR sort gate)” value was “high polyreactivity”.
For “QVQLVESGGGLVQAGGSLRLSCAASGSIFTSYAMGWYRQAPGKERELVAAITSTGGSTYYADSVKGRFTISRDPAKNTVYLLMNSLKPEDTAVYYCNADGGTPYDYWGQGTQVTVSS”, the “polyreactivity (PSR sort gate)” value was “low polyreactivity”.
